Laboratory results as given in publication PMC4103192 (Biochemical and biophysical research communications, 2010).

How the values were obtained:
[1] = biological target: human hepatic cytochrome P450 CYP3A4 in POPC Nanodiscs (human) (UniProt P08684); assay: steady-state enzyme activity titration
[2] = biological target: the molecule itself; assay: SEC
[3] = biological target: human hepatic cytochrome P450 CYP3A4 in POPC Nanodiscs (human) (UniProt P08684); assay: SEC

B1: full-length rat NADPH dependent cytochrome P450 reductase (enzyme, UniProt P00388 1-678, looked up)
chain: MGDSHEDTSATMPEAVAEEVSLFSTTDMVLFSLIVGVLTYWFIFRKKKEEIPEFSKIQTTAPPVKESSFVEKMKKTGRNIIVFYGSQTGTAEEFANRLSKDAHRYGMRGMSADPEEYDLADLSSLPEIDKSLVVFCMATYGEGDPTDNAQDFYDWLQETDVDLTGVKFAVFGLGNKTYEHFNAMGKYVDQRLEQLGAQRIFELGLGDDDGNLEEDFITWREQFWPAVCEFFGVEATGEESSIRQYELVVHEDMDVAKVYTGEMGRLKSYENQKPPFDAKNPFLAAVTANRKLNQGTERHLMHLELDISDSKIRYESGDHVAVYPANDSALVNQIGEILGADLDVIMSLNNLDEESNKKHPFPCPTTYRTALTYYLDITNPPRTNVLYELAQYASEPSEQEHLHKMASSSGEGKELYLSWVVEARRHILAILQDYPSLRPPIDHLCELLPRLQARYYSIASSSKVHPNSVHICAVAVEYEAKSGRVNKGVATSWLRAKEPAGENGGRALVPMFVRKSQFRLPFKSTTPVIMVGPGTGIAPFMGFIQERAWLREQGKEVGETLLYYGCRRSDEDYLYREELARFHKDGALTQLNVAFSREQAHKVYVQHLLKRDREHLWKLIHEGGAHIYVCGDARNMAKDVQNTFYDIVAEFGPMEHTQAVDYVKKLMTKGRYSLDVWS
For B1, the Kd [1] was 10 to 50 nM, the binding result [2] was “binds” and the stoichiometry N (CPR per CYP3A4) [3] was 1.
